Measurements: US20040093164A1, “Computer system and methods for producing morphogen analogs of human TDF-1” (priority 2002, published 2004)
One block for each molecule: values may come before it.

Columns and labels:
alpha-2 macroglobulin [1] = experiment: competition binding assay, immobilized alpha-2 macroglobulin
alpha-2 macroglobulin [2] = target: T1, alpha-2 macroglobulin (Homo sapiens, UniProt P01023); experiment: competition binding assay with immobilized alpha-2 macroglobulin and labeled and unlabeled TDF-1; details: immobilized alpha-2 macroglobulin
T1 sequence (P01023 24-1474): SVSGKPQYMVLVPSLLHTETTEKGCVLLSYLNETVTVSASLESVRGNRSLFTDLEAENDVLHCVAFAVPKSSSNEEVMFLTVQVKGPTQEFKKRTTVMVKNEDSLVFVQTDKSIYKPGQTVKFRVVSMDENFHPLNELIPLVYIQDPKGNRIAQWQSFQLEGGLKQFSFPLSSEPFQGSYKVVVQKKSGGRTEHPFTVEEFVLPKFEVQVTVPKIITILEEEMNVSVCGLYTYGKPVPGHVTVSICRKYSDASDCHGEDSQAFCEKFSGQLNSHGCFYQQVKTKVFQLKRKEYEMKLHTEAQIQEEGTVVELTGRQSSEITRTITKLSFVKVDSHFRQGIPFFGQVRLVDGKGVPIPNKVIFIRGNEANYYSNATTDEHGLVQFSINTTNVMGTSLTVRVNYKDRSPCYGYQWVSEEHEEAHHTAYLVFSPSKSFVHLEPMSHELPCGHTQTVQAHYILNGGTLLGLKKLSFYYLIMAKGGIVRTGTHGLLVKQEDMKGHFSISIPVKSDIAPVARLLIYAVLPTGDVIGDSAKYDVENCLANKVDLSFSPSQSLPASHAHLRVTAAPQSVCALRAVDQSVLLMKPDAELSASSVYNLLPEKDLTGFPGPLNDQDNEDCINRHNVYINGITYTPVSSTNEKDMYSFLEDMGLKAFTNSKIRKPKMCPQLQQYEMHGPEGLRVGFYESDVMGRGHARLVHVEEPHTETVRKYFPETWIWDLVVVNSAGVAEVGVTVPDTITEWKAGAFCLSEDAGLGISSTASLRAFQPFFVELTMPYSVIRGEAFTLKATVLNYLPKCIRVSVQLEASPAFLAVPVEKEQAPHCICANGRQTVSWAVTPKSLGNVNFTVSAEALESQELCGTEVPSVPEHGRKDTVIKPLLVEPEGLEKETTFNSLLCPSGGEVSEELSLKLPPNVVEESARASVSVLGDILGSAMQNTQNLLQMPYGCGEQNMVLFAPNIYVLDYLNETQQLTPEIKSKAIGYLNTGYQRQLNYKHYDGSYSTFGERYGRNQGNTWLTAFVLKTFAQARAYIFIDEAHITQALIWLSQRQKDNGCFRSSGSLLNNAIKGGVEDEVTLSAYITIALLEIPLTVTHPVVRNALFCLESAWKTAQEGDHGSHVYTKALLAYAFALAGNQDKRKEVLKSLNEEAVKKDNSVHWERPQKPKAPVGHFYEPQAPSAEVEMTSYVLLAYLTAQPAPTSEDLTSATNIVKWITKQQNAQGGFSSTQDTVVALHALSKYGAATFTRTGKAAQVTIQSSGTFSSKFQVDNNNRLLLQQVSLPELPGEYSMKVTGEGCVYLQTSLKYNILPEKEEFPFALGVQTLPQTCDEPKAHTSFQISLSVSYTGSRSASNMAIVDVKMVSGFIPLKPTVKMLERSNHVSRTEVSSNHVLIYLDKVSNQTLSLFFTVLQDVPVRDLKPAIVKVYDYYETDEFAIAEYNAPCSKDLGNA
Excerpt: This N-terminal portion of the protein, which is not part of the crystal structure, is positively charged and likely is highly flexible in solution.

ROS cells = experiment: effect of alpha-2 macroglobulin on TDF-1 stimulated alkaline phosphatase activity in a ROS cell assay; format: cell-based
[3] = solubility by comparing the partition coefficient of mutein versus wild type hTDF-1 dimer; format: physicochemical; details: partition coefficient comparison, surmised result
Excerpt: The resulting candidate morphogen analogs can be produced using conventional site-directed mutagenesis methodologies, and the effect of the site-directed modification on the solubility of the hTDF-1 dimer can be measured, for example, by comparing the partition coefficient or “salting out properties” of the modified hTDF-1 dimer versus the native hTDF-1 dimer. See, for example, Scopes (1987) in Protein Purification: Principles and Practice, 2nd Edition (Springer-Verlag); and Englard et al. (1990) Meth. Enzymol. 182: 285-300, both incorporated herein by reference.
The enhanced solubility of the resulting morphogen analog is measured by comparing the partition coefficient of the Ala 63->Ser 63 mutein versus wild type hTDF-1 dimer. […] It is contemplated that additional muteins having multiple hydrophobic to hydrophilic substitutions can be produced and characterized using the protocols described in this Example. The biological activity of the resulting morphogen analogs can be determined using one or more of the TDF-1 activity assays described Example 1.

fold less affinity than TDF-1 (alpha-2 macroglobulin [1]): 10 fold
Molecule: truncated mature TDF-1, wherein the first 22 amino acids have been cleaved from the mature form of TDF-1 in a standard trypsin digest (ligand)

interaction with alpha-2 macroglobulin (alpha-2 macroglobulin [2]): interact specifically
Molecule: TDF-1: tissue morphogenic protein Transformation and Differentiation Factor-1, SEQ ID NO:1

Molecule: Alpha-2 macroglobulin: protease scavenging protein known to bind proteins in serum and target them to the kidney for clearance
interference with TDF-1's ability to stimulate alkaline phosphatase activity (ROS cells): not to interfere

B1: Ala 63->Ser 63 mutein: hTDF-1 with the alanine at position 63 mutated to a serine (protein, UniProt P18075 293-431, looked up, variant A63S)
Bone morphogenetic protein 7: STGSKQRSQNRSKTPKNQEALRMANVAENSSSDQRQACKKHELYVSFRDLGWQDWIIAPEGYSAYYCEGECAFPLNSYMNATNHAIVQTLVHFINPETVPKPCCAPTQLNAISVLYFDDSSNVILKKYRNMVVRACGCH
solubility versus native hTDF-1 [3]: higher solubility than native hTDF-1
